Target: the molecule itself
Test: SAXS; 2.618 mg/mL hNudt16 in 20 mM HEPES pH 7.9, 300 mM NaCl, 10% glycerol, 0.5 mM TCEP, 20 mM MgCl2; room temperature; scattering compared with crystal structures of the dimer (CRYSOL) and ab initio model (DAMMIN)

B1: human Nudt16 protein (hNudt16), wild type (enzyme, UniProt Q96DE0 1-195, looked up)
chain: MAGARRLELGEALALGSGWRHACHALLYAPDPGMLFGRIPLRYAILMQMRFDGRLGFPGGFVDTQDRSLEDGLNRELREELGEAAAAFRVERTDYRSSHVGSGPRVVAHFYAKRLTLEELLAVEAGATRAKDHGLEVLGLVRVPLYTLRDGVGGLPTFLENSFIGSAREQLLEALQDLGLLQSGSISGLKIPAHH
notes: human Nudt16 (hNudt16), NUDIX hydrolase; also called hNudt16 WT
For B1, the “stoichiometry N” value was 2.

— publication PMC8535469, “Insight into the Binding and Hydrolytic Preferences of hNudt16 Based on Nucleotide Diphosphate Substrates” (International Journal of Molecular Sciences, 2021)
